# Tests used:
# Racl = Racl activation (PAK-PBD pull-down, immunoblot) in CER-transduced Ba/F3 cells; type: cell-based; conditions: 2 hours co-culture with thymocytes, compared to CER21
# Source text: The Rho family of GTPases play essential roles in actin assembly during phagocytosis. Inhibition of either Rho GTPase Racl or CDC42 in macrophages results in a complete blockade of FcR-mediated phagocytosis due to defective actin assembly. To investigate induction of phagocytic signal transduction cascades, CER-expressing cells were interrogated for the activation of CDC42 and Racl. […] Ba/F3 cells were transduced with lentiviral vectors comprising CER21 nucleic acid, CER116 nucleic acid, or vector alone (mock). Target thymocyte cells were stained with pHrodo red. CER-transduced Ba/F3 cells were co-cultured with dexamethasone pre-treated thymocytes for 2 hours. The Racl inhibitor NSC23766 (Selleck Chem) was added during the co-culture in appropriate wells. Cells were then collected, solubilized in lysis buffer, and immunoprecipitation was performed on protein lysates to detect phospho-Racl using PAK-PBD agarose beads (Cytoskeleton, Inc.). Immunoprecipitates were eluted and 25 μg of protein was loaded onto SDS-PAGE gradient gels and then probed with monoclonal, mouse anti-Racl primary antibody (Cytoskeleton Inc.) overnight at 4° C., washed, and hybridized with secondary, anti-mouse antibody conjugated to horseradish peroxidase (Jackson Labs) (FIG. 85A). […] Protein gel bands were quantified using ImageJ image processing program, and the proportion of activated Racl was quantified (FIG. 85B). […]
# [1] = test system: pHrodo-red labeled, dexamethasone treated thymocytes; experiment: Luminal degradation of engulfed thymocytes in CER-transduced Ba/F3 cells (time-lapse imaging); type: cell-based
# Method: Luminal degradation in CER-transduced cells was also evaluated following engulfment. Ba/F3 cells transduced with CER21 or CER116 were co-cultured with pHrodo-red labeled, dexamethasone treated thymocytes overnight and subsequently purified by FACS. Target cell destruction was visualized by time-lapse imaging and quantified over time (FIG. 85F). […] CER116-harboring Ba/F3 cells (top) catabolize target cells, allowing cells to return to homeostasis and resume immune responsiveness. The addition of a TRAF6 signaling domain to the CER construct promotes rapid destruction of engulfed material.
# [2] = test system: CER-transduced CD4+ T cells; experiment: Mass cytometry (CyTOF) with viSNE marker analysis of CER-transduced CD4+ T cells; type: cell-based, human
# Source text: CD4+ T cells were transduced with lentiviral vector comprising CER104, CER116, or CER117 nucleic acid. CER104 (SEQ ID NO:133) comprises a Tim4 binding domain, Tim4 transmembrane domain, and an engulfment signaling domain comprising a primary engulfment signaling domain comprising a TLR8 signaling domain and a secondary engulfment signaling domain comprising a DAP12 signaling domain. CER116 (SEQ ID NO:143) comprises a Tim4 binding domain, Tim4 transmembrane domain, and an engulfment signaling domain comprising a primary engulfment signaling domain comprising a TRAF6 signaling domain and a secondary engulfment signaling domain comprising a TLR8 signaling domain. CER117 (SEQ ID NO:144) comprises a Tim4 binding domain, Tim4 transmembrane domain, and an engulfment signaling domain comprising a primary engulfment signaling domain comprising a TLR8 signaling domain and a secondary engulfment signaling domain comprising a TRAF6 signaling domain. CER-transduced CD4+ T cells were co-cultured with E7 TCR-transduced CD8+ T cells and HPV+SCC152 target cells and interrogated by mass cytometry (CyTOF) with viSNE for visualization of high dimensional single cell data (FIGS. 82-84). Intact CER-transduced CD4+ T cells are shown in plots displaying tSNE1 (horizontal) and tSNE2 (vertical) axes. 27 intracellular markers were used for the viSNE analysis. Each dot represents a single cell. […] Red represents high expression and blue represents low expression for each marker. Populations of CD4^+ T cells were generated using a clustering algorithm from all 27 markers and overlaid onto the viSNE map. […] Populations of CD4^+ T cells were generated using a clustering algorithm from all 18 markers and overlaid onto the viSNE map (FIG. 83A). […] Color plots by 18 intracellular markers (CD28, CCR7, CD45RA, PD1, CD127, Perforin, CD49d, CD85j, CD38, CD27, Granzyme B, CD57, CD25, CD69, CD154, CD56, HLA-DR, and TCRγδ) show the phenotype across viSNE ‘islands’ (FIG. 83B). Red represents high expression and blue represents low expression for each marker. Highlighted region with arrow indicates cells expressing T cell activation marker CD69. Populations of CD4^+ T cells were generated using a clustering algorithm from 18 intracellular markers (CD28, CCR7, CD45RA, PD1, CD127, Perforin, CD49d, CD85j, CD38, CD27, Granzyme B, CD57, CD25, CD69, CD154, CD56, HLA-DR, and TCRγ6) and overlaid onto the viSNE map. […] Color plots by the 18 intracellular markers show the phenotype across viSNE ‘islands’ (FIG. 84B). Red represents high expression and blue represents low expression for each marker. Highlighted region with arrow indicates cells expressing the naïve T cell marker CD45RA.
molecule,measurement,setting,value
"CER116: Tim4 binding and transmembrane domains, TRAF6 primary and TLR8 secondary signaling domains; SEQ ID NO:143 (protein, CER116 protein) MSKGLLLLWLVTELWWLYLTPAASEDTIIGFLGQPVTLPCHYLSWSQSRNSMCWGKGSCPNSKCNAELLRTDGTRIISRKSTKYTLLGKVQFGEVSLTISNTNRGDSGVYCCRIEVPGWFNDVKKNVRLELRRATTTKKPTTTTRPTTTPYVTTTTPELLPTTVMTTSVLPTTTPPQTLATTAFSTAVTTCPSTTPGSFSQETTKGSAFTTESETLPASNHSQRSMMTISTDIAVLRPTGSNPGILPSTSQLTTQKTTLTTSESLQKTTKSHQINSRQTILIIACCVGFVLMVLLFLAFLMSLLNCENSCGSSQSESDCCVAMASSCSAVTKDDSVGGTASTGNLSSSFMEEIQGYDVEFDPPLESKYECPICLMALREAVQTPCGHRFCKACIIKSIRDAGHKCPVDNEILLENQLFPDNFAKREILSLMVKCPNEGCLHKMELRHLEDHQAHCEFALMDCPQCQRPFQKFHINIHILKDCPRRQVSCDNCAASMAFEDKEIHDQNCPLANVICEYCNTILIREQMPNHYDLDCPTAPIPCTFSTFGCHEKMQRNHLARHLQENTQSHMRMLAHHLFYWDVWFIYNVCLAKVKGYRSLSTSQTFYDAYISYDTKDASVTDWVINELRYHLEESRDKNVLLCLEERDWDPGLAIIDNLMQSINQSKKTVFVLTKKYAKSWNFKTAFYLALQRLMDENMDVIIFILLEPVLQHSQYLRLRQRICKSSILQWPDNPKAEGLFWQTLRNVVLTENDSRYNNMYVDSIKQY",Racl signaling (proportion of activated Racl),Racl,enhanced Racl signaling
same,time to near complete resolution of luminal contents,[1],≤ 36 h
same,luminal content degradation over time,[1]; FACS purified after overnight co-culture,enhanced CER116 luminal content degradation over time
same,memory formation after antigen encounter,[2]; CD4+ T cells,associated with memory formation after antigen encounter
same,viSNE islands expressing T cell activation marker CD69,[2]; CD4+ T cells after antigen encounter,enrichment of islands expressing the T cell activation marker CD69
same,viSNE islands expressing intracellular marker IFNγ,[2]; CD4+ T cells after co-culture with E7 TCR CD8+ T cells and SCC152 cells,enrichment of islands expressing the intracellular marker IFNγ
same,viSNE islands expressing naïve T cell marker CD45RA within the CCR7+ population,[2]; compared to controls,loss of islands expressing the naïve T cell marker CD45RA

# Source: patent publication US11708423B2, “Chimeric engulfment receptor molecules and methods of use” (CERO THERAPEUTICS, INC., priority 2017, dated 2023)
